These results are taken from PMC3742313.

The target of test [1] is GM-CSF receptor on human CD34+ cord blood cells (human (endogenous in CD34+ cord blood cells)) (UniProt P32927). Kind of test: radioligand binding.
Test [2] has as its target GM-CSF receptor on TF-1 cells (human (endogenous in TF-1)) (UniProt P32927). Kind of test: radioligand binding.

“DPP4-truncated recombinant human [125I]-GM-CSF (ligand)” gave a KD of the high-affinity site in test [1] of 0.734 nM.

In test [2], “unlabeled DPP4-truncated recombinant human GM-CSF (ligand)” gave a percent by which the IC50 is less than for full-length GM-CSF of 88%.
